# Reference: patent US10172951B2, “Dendrimer based nanodevices for therapeutic and imaging purposes” (priority 2009, dated 2019)
# Experiments:
# [1] = GSH triggered NAC release from PAMAM dendrimer-NAC conjugates (RP-HPLC); assay type: physicochemical; conditions: for amount released: over 20 hours
# Procedure: (§1) Appropriate amounts of PAMAM-S—S-NAC conjugate were dissolved in release media (Citrate or PBS buffers) to form a solution of 1 mg/ml PAMAM-S—S-NAC. One of the thiol containing molecules (GSH, Cys or BSA) was added to the conjugates to form 10 mM, 2 mM, 0.5 mM 0.1 mM or 2 μM overall thiol group concentrations and to initiate the release of NAC. All samples were run as triplicates for statistical analysis.
# As control samples, conjugates were analyzed in both release media in the absence of reducing agents. The solutions were kept at 37° C. and stirred continuously. At predetermined time intervals, […] of samples were withdrawn and immediately analyzed with RP-HPLC and the concentrations of analytes were determined by using appropriate calibrations prepared under same conditions.
# Dendrimer NAC conjugates were analyzed for their drug release mechanism and kinetics in the presence of GSH, Cys and BSA. Buffer solutions with pH 5 (Citrate Buffer) and pH 7.4 (Phosphate Buffered Saline) containing various concentrations of these thiol containing moieties were used in release studies.
# All GSH concentrations studied were between average plasma (2 μM) and intracellular (2-10 mM) GSH levels. Various GSH concentrations were used in order to determine the GSH dependent release kinetics of the conjugate. The conjugate solutions contained 730 μM NAC in the conjugated form (1 mg/ml PAMAM-S—S-NAC) at the beginning of the release studies. GSH concentration in the release media was compared to the conjugated NAC concentrations in the release solutions for analysis of the release kinetics and mechanism.
# The release of NAC from the conjugates was investigated in the presence of GSH at intracellular and extracellular concentrations. It was assumed that the release of NAC would occur by the disulfide exchange reaction. GSH and its oxidized form (GSSG) are responsible for forming the intracellular redox buffer. Intracellularly, GSH takes the role of attacking thiolate moiety and gets oxidized in the process while cleaving the existing disulfide bonds.
# The conjugates were also analyzed in the absence of GSH to verify the stability of the disulfide linkage at physiological pH. […] The extent of the release of drug from both dendrimer-NAC conjugates was also analyzed at plasma and intracellular GSH concentrations. The conjugates and the GSH in required amounts were added to PBS solution, and the solution was analyzed at various time intervals by HPLC for up to 17 hours. UV absorbance peak areas were used to determine the concentrations of each of the species in the solution, based on appropriate calibration curves.
# [2] = Cysteine triggered NAC release from PAMAM-S-S-NAC; assay type: physicochemical; conditions: pH 7.4
# Procedure: as §1
# [3] = Stability of conjugate in bovine serum albumin (BSA) solution; assay type: physicochemical; conditions: pH 7.4 and pH 5, over 24 hours
# Source text: To investigate the reducing activity of Cys in protein structures, bovine serum albumin (BSA) was chosen for release studies since it is the most abundant protein in plasma. Additionally, for intravenous administration of conjugates, it is important for the drug to stay intact with the carrier until the conjugate reaches its final destination within the body. Thus the release characteristic in the presence of albumin is crucial for intravenous applications. The release studies in the presence of BSA were carried out at pH 7.4 and pH 5 as well. The BSA concentrations used for the studies were adjusted so that the overall Cys concentrations in BSA release media were the same as the GSH and Cys release studies, discussed earlier. In addition to the five thiol concentrations studied, the stability of the conjugate at plasma BSA concentration was also analyzed.
# [4] = system: Mouse microglial cell line (BV-2); assay: In vitro cytotoxicity, MTT assay (Example 19)
# Source text: In vitro cytotoxicity of the conjugate, dendrimer and NAC, at conditions similar to that used in the efficacy assays, was investigated by MTT assay. Mouse microglial cell line (BV-2) was obtained from Children's Hospital of Michigan Cell Culture Facility. These cells were used because the eventual in vivo applications seek to target microglial cells that become activated as a result of neuroinflammation.
# The lipopolysaccharide (LPS) was used to activate the cells for the ROS assay. For the cytotoxicity study, the LPS treatment was continuous for 24 hours. For both groups, the LPS concentration used was 100 ng/ml. Three concentrations of NAC were studied: 0.5 mM, 2 mM and 8 mM. For the conjugate assays, the concentrations used corresponded to equivalent NAC doses of the free drug treatment groups. Similarly, the dendrimer assays were run by using dendrimer concentrations that were equivalent to conjugate treatments. Control groups included cells receiving only LPS and no other treatment and cells with no LPS or other treatment. The proportion of viable cells in the treated group was compared to that of negative control. The cell viability is expressed as mean±SD of three samples per group, and assessed by t-test.
# BV-2 cells = assay: ROS assay, percent reduction in H2O2 in LPS-treated BV-2 cells (Example 19); assay type: cell-based, mouse; conditions: for reduction in H2O2 levels: 0.5 mM NAC (equivalent), co-treatment with LPS
# Procedure: Cells were treated with lipopolysaccharide (LPS) to induce the production of ROS. The cells were treated with LPS (100 ng/ml) and either NAC, PAMAM-S—S-NAC, or free PAMAM-NH2 dendrimers at appropriate concentrations to study the efficacy of the conjugates for reducing the ROS concentrations. In order to quantify the efficacy of conjugates, H2O2 released from BV-2 cells (ROS) was measured using the Amplex Red Hydrogen Peroxide/Peroxidase Assay Kit using previously established procedures.
# Solubility in PBS/H2O = assay type: physicochemical
# [5] = 10 mM GSH, PBS pH 7.4, within 1 hour
# [6] = 10 mM GSH, after the initial 1 hour release (time not given)
substance,measurement,setting,value
PAMAM-NH—CO-Ethyl-S—S-NAC [PAMAM-S—S-NAC],NAC payload in GS-S-NAC (NAC-GSH) form,[1]; [5],19%
same,NAC payload released in free form,[1]; [5],47%
same,total NAC release,[1]; [5],66%
same,NAC payload as GS-S-NAC,[1]; [6],14%
same,NAC payload in free form,[1]; [6],41%
same,NAC release,"[1]; PBS buffer without GSH, 17 hours",did not release any of the NAC they carried
same,duration of sustained drug release,[1]; lysosomal pH,about 8 hours
same,NAC release,"[1]; pH 5, 2 μM GSH, within 20 hours",no significant amount NAC was released
same,amount released,"[1]; pH 5, 100 μM GSH",15%
same,amount released,"[1]; pH 5, 500 μM GSH",58%
same,time to nearly completed release,"[1]; pH 5, 2000 μM GSH",up to 20 hours
same,time to nearly completed release,"[1]; pH 5, 10,000 μM GSH",≤ 7 h
same,maximum extent of payload release,"[1]; pH 5.0, intracellular GSH concentrations",about 90%
same,NAC payload released,"[1]; pH 5, intracellular GSH concentrations (excess), within 20 hours",95%
same,NAC release,"[1]; pH 5, no GSH",did not release any NAC
same,NAC release,"[1]; pH 7.4, 2 μM GSH",no detectable level of NAC released
same,NAC release,"[1]; pH 7.4, 100 μM GSH",6%
same,NAC release,"[1]; pH 7.4, 500 μM GSH",31%
same,payload released,"[1]; pH 7.4, 2000 μM GSH",60%
same,payload released,"[1]; pH 7.4, 10,000 μM GSH",66%
same,NAC release,"[1]; pH 7.4, absence of GSH, within 3 days",did not release any NAC
same,maximum extent of payload release,"[1]; pH 7.4, intracellular GSH concentrations",approximately 65%
same,drug released,"[1]; pH 7.4, intracellular GSH levels, in less than two hours",More than 60%
same,NAC payload found as GS-S-NAC or NAC-NAC,[1]; plasma GSH concentration (2 μM),1%
same,release of free NAC,"[1]; plasma GSH concentration (2 μM), 17 hours",did not release any detectable levels of free NAC
same,rate of NAC release with Cys compared to GSH,[2],slightly faster rates
same,NAC release in presence of BSA,[3],no NAC being released
same,cell survival rate,[4]; highest dose,84%
same,cell survival rate,[4]; lowest concentration of the conjugate,greater than 95%
same,reduction in H2O2 levels,BV-2 cells; 24 hours,72%
same,reduction in H2O2 levels,BV-2 cells; 72 hours,101%
same,reduction in effective dose,"BV-2 cells; 3 hours of treatment, lower drug doses (0.5 mM and 2 mM)",≤ 4 fold
same,reduction of effective dose of NAC,"BV-2 cells; continuous treatment, 0.5 mM conjugate vs 8 mM free NAC",about 16 times
same,Solubility in PBS/H2O,Solubility in PBS/H2O,Highly
